The nanobody polyreactivity screen of Harvey et al. (2022)

Assay: yeast display, Sf9 membrane polyspecificity reagent, FACS + sequencing; frameworks hold sequencing errors
In short: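 Nanobodies from a synthetic yeast display library (Saccharomyces cerevisiae BJ5465), induced 36–48 hours with galactose, were stained 1 hour at 4 °C with 10% biotinylated, detergent-solubilized Sf9 membrane reagent, enriched on streptavidin microbeads, then FACS-sorted. Anti-HA (expression) and streptavidin (reagent binding) fluorescence set low and high (top ~1%) gates. Polyreactivity labels come from the gate of origin. Genes were colony-PCR amplified, MiSeq 2 × 250 sequenced and filtered by CDR length.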

| Sequence | polyreactivity (PSR sort gate) |
| --- | --- |
| QVQLVEAGGGLVQAGGILRLSSAASGSIFPLNAMGWYRQAPGKERELVAAISESGGRTYYADSVNGRFTISRDNAKNTVYLQMNSLNPEDTAVYYCATVRLARKSAPYDYWGQGTQVTVSS | high polyreactivity |
| QVQLVEAGGGLVQAGGSLRLSCAASGRTFLRYTMGWYRQAPGKEREWVASITRGGSTYYADSVKGRFTISRDNAKNTVYLQMNSLKPEDTAVYYCAAGKALLSRYYYWGQGTQVTVSS | high polyreactivity |
| QVQLVEAGGGLVQAGGSLRLSCAASGRTFPVNPMGGYRQAPGKERELVAAISKRAGSTYYADSVKGRFTISRDNAKNTVYLQMNSLKPEDTAVYYCAARWRVIYAEFDYWGQGTQVTVSS | high polyreactivity |
| QVQLVEAGGGLVQAGGSLRLSCAASGRTFTYYTMGWYRQAPGKERELVATITSGGITNYADSVKGRFTISRDNAKNTVYLQMNSLKTEDTAVYYCDKRWVNKYYYWGQGTQVTVSS | high polyreactivity |
| QVQLVEAGGGLVQAGGSLRLSCAASGRTLYPYAMGWYRQAPGKERELVAAISSRGGSTYYADSVKGRFTISRDNAKNTVYLQMNSLKPEDTAVYYCAKSYRKILSITGLVPWTDYFWGQGTQVTVSS | low polyreactivity |
| QVQLVEAGGGLVQAGGSLRLSCAASGYIFFFYAMGWYRQAPGKERELVASITYRGGSTYYADSVKGRFTISRDNAKNTVYLQMNSLIPEDTAVYYCNVDGGGPLGPQGFPFDYWGQGTQVTVSS | low polyreactivity |
| QVQLVEAGGGLVQAGGSLRLSCGASGLTLTYYAMGGYRQAPGKERELVASISRSGGRTYYADSVKGRFTISRDNAKNPVYLQMNSLKPEDTAVYYCNAAWYRGRYDYWGQGTQVTVSS | high polyreactivity |
| QVQLVEAGGGLVQAGGSLRLSGAASGFTLYANAMGWYRQAPGKERELVADISVSGSSTAYADSVKGRFTISRDNAKNTVYLQMNSLKPEDTAVYYCNADQGTRDSDYWGQGTQVTVSS | low polyreactivity |
| QVQLVEEGGGLVQAGGSLRLSCAASGRISYYYTMGWYSQAPGKERELVAAISWSGGTTYYADSVKGRFTISRDNAKYTVYLQMYSLKPEDTAVYYCAARDYYTDFHGTRRYDYWGQGTLVTVSS | low polyreactivity |
| QVQLVELGGGLVQAGGSLRLSCAASGSIFSRNTMGWYRQAPGKERELVAGISSSGSRTYYADSVKGRFTISRDNAKNTVYLQMNSLKPEDTAVYYCNARYYWKQAADYNYWGQGTQVTVSS | low polyreactivity |
| QVQLVEPGGGLVQAGGSLRLSCAASGRIFRGYAMGWYRQAPGKVRELVAANSQSGSSTYYADSVKGRFTISRDNAKNTVYLKMNSLKPEDTAVYYCAVKYLKHFGYWGQGTQVTVSS | high polyreactivity |
| QVQLVESAAGLVKAGASLRLSCAPSGSTFYLNAMGGSRQEPGQESEFVAAIRGGGTSTRYADSVKGRFTISRDNAKNSVYLQMNSLKPEDSAVYYCAAGPGGHRYKVGYWGLGTQVTVSS | high polyreactivity |
| QVQLVESAAGLVQAGGSLRLSCAASGFIFHCNAMGWSRQAPGKERELVAAISDTADITHYADSVKGRFTISRDNAKNTVYLQMNSLKPEDTAVYFCNAGSGVQVVWYKPYREYEYWGQGTQVTVSS | low polyreactivity |
| QVQLVESAAGLVQAGGSLRLSCAASGLTFTTYDKGWYTQAPRKQRELFAAISRGGSRTYYADSVKGRFTISRDNAKNTVYLQMNSLKPEDTAVYYGNALTGSFTTYSFDFWGQGTQVTVSS | high polyreactivity |
| QVQLVESAAGLVQAGGSLRLSSAASGSIFGPYAMGWYRQAPGKERELVAVISSGDSTNYADSVKGRFTISRDNAKNTVYLQMNSLKPEDTAVYYCATRYLLYRGGHSLFYHFDYWGQGTQVTVSS | low polyreactivity |
| QVQLVESAARLVQAGGSLRLSCAPSGNIFKGYAMGCYRQAPGKHRELVAAITSGDSTNYADSVKGRFTISRDNAKNTVYLQMNSLKPEDTGVYYCNARYSWWRSRDGSSHRPDGYWGQGTQVTVSS | high polyreactivity |
| QVQLVESAGGFVQAGGSLRLSCAASGLTFYYYAMGWYRQAPGTERELVAAFSTRGTSTYYADSVKGRFTISRDNAKKTVYLQMNSQKPEDTAVYYCAADSYPWGTGGDYWGQGTQVTVSS | high polyreactivity |
| QVQLVESAGGLDQAGGSLRLSCAASGFTFVAYSMGLYRQAPGKERELVADISRGGSTFYADSVKGRFTISRDNAKISVYLQKNSLKPEDSAVYYCASTYIHSYGKFYYWGQGTQVTVSS | low polyreactivity |
| QVQLVESAGGLFQEGGSLRVSCAASGSTFSYYDMGGYRQAPGKERELVAAINSTGITTYADSVKGRFTISRDNAKNTVYLQMNSLKPEDTAVYYCAAYHNYWGPYVWEEDYWGQGTQVTVSS | low polyreactivity |
| QVQLVESAGGLVQAAGSLRLSCDASGFIFGTNAMGWYRQAPGKERELVAAINGRGGGTYYADSVKGRFTISRDNAKNTVYLQMNSLKPEDTAVYYCAASRFDYWGQGTQVTVSS | low polyreactivity |
| QVQLVESAGGLVQAGGSLLLSCAASGFTFYPYAMGWYRQAPGKERELVAAISNGDSTHYADSVKGRFTISRDNAKNTVYLQMTSQKPEDTAVYYCAAPRYPYRCFYSDYDYWGQGTQVTVSS | low polyreactivity |
| QVQLVESAGGLVQAGGSLPLSSAASGRIFVWYAMRWYRQAPGKDRELVAAISISGSSTYYADSVKGRFTISRDNAKNTVYLQMNSLNPEDTAVYYCAARFYSSAYWYDYWGQGTQVTVSS | high polyreactivity |

| Sequence | polyreactivity (PSR sort gate) |
| --- | --- |
| QVQLVESAGGLVQAGGSLRLICAASGRIFYLNAMGWYRQAPGKESELVAAINTSCGSTYADSVKWRFTISRDNAKNTVYLQMNSLKPEDTAVYYCNAYLAEVLPLGKGRLYDYWGQGTQVTVSS | low polyreactivity |
| QVQLVESAGGLVQAGGSLRLICAASGSIFDLYAMGWYRQAPGTERELVAASTWSGGSTYYADSVKGRFTISRDNAKNTVYLQMNSLKPEDTAVYYCAAAYVGTQDLVIDYDYWGQGTQVTVSS | low polyreactivity |
| QVQLVESAGGLVQAGGSLRLSCAASARTFGAYAMGWYRQAPGNERELVATITVSGGSTYYADSVKGRFTISRENAKNTVYLPMNSLKPEDTAVYYCAAAYDWWQFYSWTIAYDYWGQGTQVTVSS | low polyreactivity |
| QVQLVESAGGLVQAGGSLRLSCAASGFIFRFNAMGWYRQAPGKERELVAAISWSGSSTYYADSVKGRFTISRDNAKNTVYLQMNSLKPEDTAVYYCATSAFYYKIVKGDFYYWGQGTQVTVSS | high polyreactivity |
| QVQLVESAGGLVQAGGSLRLSCAASGFTFIGYVMGWYRQAPGKERELVAAITSGGDTNYADSVKGRFTISRDNAKNTVYLQMNSLKPEDTAVYYCNKGAYWVEYAYIEGELDYWGQGTQVTVSS | low polyreactivity |
| QVQLVESAGGLVQAGGSLRLSCAASGFTFREYAMGWYRQAPGKERELVADIDWSGGSTYYADSVKGRFTISRDNAKNTFYLQMNSLKPEDTAVYYCAKAYYPGVYWGQGTQVTVSS | high polyreactivity |
| QVQLVESAGGLVQAGGSLRLSCAASGFTFSSYVMGWYRQAPGKARELVAAISSSGARTYYADSVKGRFTISRDNAKNTVYLQMNSLKPEDNADYYCAAENSPRPYDYWGQGTQVTVSS | high polyreactivity |
| QVQLVESAGGLVQAGGSLRLSCAASGGIFVFYAMGWYRQAPGKERELVAAITYRGGSTSYADSVKGRFTISRDHAKNTVYLQLNSVKPEDTAVYYCAAAFYAKGQRYGYWGHGTQVTVSS | high polyreactivity |
| QVQLVESAGGLVQAGGSLRLSCAASGIIFRPNPLGWYRQAPGKERELVAAISKRGGSTYYADSVKGRFTISRDNAKNTVYLQMNSLKPEDTAVYYCAKRQQQSSGYDYWGQGTQVTVSS | high polyreactivity |
| QVQLVESAGGLVQAGGSLRLSCAASGIIFTPNPMGWYRQAPGKEREFVAAINYGGDTTYYADSVKGRFTISRNNAKNTVYLQMNRLKPEDTAVYYCATDGTTPTPRDAFVRFDHWGQGTQVTVSS | low polyreactivity |
| QVQLVESAGGLVQAGGSLRLSCAASGITFSGYAMGWYRQAPGKERELVAAISWRGVRTYYADSVKGRFTISRDNAKNTVYLQMNSLKPEDTAVYYCAAVRYITKEFYWGQGTQVTVSS | high polyreactivity |
| QVQLVESAGGLVQAGGSLRLSCAASGLIIYYYAMGWYRPAPGKERELVAAISGSSGASTYYADSVKGRFTISRDNAKNTVYLQMNSLKPEDTAVYYCNADWARLWIRSTEFDYWGQGTQVTVSS | low polyreactivity |
| QVQLVESAGGLVQAGGSLRLSCAASGRIFQFYAMGWYRQARGKERELVAVITRRGGSTHYADSVKGRFTISRDTAKNTVYLQMNILKPEDTAVYYCAKVPFHFVSPYDYWGQGTQVTVSS | high polyreactivity |
| QVQLVESAGGLVQAGGSLRLSCAASGRIFSTYAMGWYRQAPGKERELVAAISWRGSSTYYADSVKGRFTISRDHAKNTVYLQMNSLKPEDTAVYYCNADKANRYDWGQGTQVTVSS | high polyreactivity |
| QVQLVESAGGLVQAGGSLRLSCAASGRIFVYYAMGGYRKAPGKERELVAAISDSDDSSYYADSVKGRFTISRDNAKNTVYLQMNSLKPEDTAVYYCAAEGDIGGDDYYWGQGTQLTVSS | high polyreactivity |
| QVQLVESAGGLVQAGGSLRLSCAASGRIFWGNAMGWYRQAPGKERELVAAITRRGGTKFYADSVKGRFTISRDNAKNTVYLQMNSLIPEDTAVYYCAARRYGQYDGYDSWGQGTQVTVSS | high polyreactivity |
| QVQLVESAGGLVQAGGSLRLSCAASGRILFGYAMGWYRQAPGKERELVADITSTGSTNYADSVKGRFTISRDNAKNTVYLQMNSLKPEDTAVYYCNVDDTSWTTSGGRFGQVESDYWGQGTQVTVSS | low polyreactivity |
| QVQLVESAGGLVQAGGSLRLSCAASGRTFGRYAMGGYRQAPGKERELVAGISGSVGITYYADSVKGRFTISRDNAKNTVYLQMNSLKPEDTAVYYCAVVARAGHKYDYWGQGTQVTVSS | low polyreactivity |
| QVQLVESAGGLVQAGGSLRLSCAASGRTFGYYAMGWYRQAPGKERELVAAISSGGSTNYADSVKGRFTISRDNAKNTVYLQMNSLKPEDTAVYHCAAKAWYYPGRRNYYQYYYWGQGTQVTVSS | high polyreactivity |
| QVQLVESAGGLVQAGGSLRLSCAASGRTFKYYAMGWYRQAPGKERELVAAITSTGGSTYYADSVKGRFTISRDNEKNTVYLQMNSLKPEDTAVYYCNRYTQYRDRSDNHWGQGTHVTVSS | high polyreactivity |
| QVQLVESAGGLVQAGGSLRLSCAASGRTFRKYAMGRYRQAPGKERELVAAISSSGGSTFYADSVKGRFTISRDNAKNTVYLQMNSLKPEDTAVYYCAAEALRRYSFGYWGQGTQVTVSS | low polyreactivity |
